Data reported in US9695461B2, “Method for adapting a hydrolytic enzyme to a component that stabilizes the hydrolytic enzyme” (Henkel AG & Co. KGaA, priority 2011, dated 2017).

System: protease according to SEQ ID NO: 3
Assay: Relative proteolytic activity with reversible inhibitor in liquid surfactant preparation (Example 1)
Assay type: biochemical
Details: 50% conc. surfactant preparation, 0.92 mM AAPF, 25° C., pH 8.6, relative to same protease without inhibitor; for relative activity, 3-HPBA: 3-HPBA in amount inhibiting starting enzyme by 20-40%; for relative activity, 4-FPBA: 4-FPBA in amount inhibiting starting enzyme by 20-40%; for relative activity, Boric acid: boric acid in amount inhibiting starting enzyme by 20-40%; for relative activity, BMA: benzylmalonic acid in amount inhibiting starting enzyme by 20-40%
From the text: The relative activity to be determined in process step c) of the hydrolytic enzyme modified in process step b) is given by [measured activity of the hydrolytic enzyme modified in process step b) in the presence of the component that stabilizes the hydrolytic enzyme] divided by [measured activity of the hydrolytic enzyme modified in process step b) in the absence of the component that stabilizes the hydrolytic enzyme] multiplied by 100.
The relative activity of the starting enzyme to be determined in process step c) is given by [measured activity of the starting enzyme in the presence of the component that stabilizes the hydrolytic enzyme] divided by [measured activity of the starting enzyme in the absence of the component that stabilizes the hydrolytic enzyme] multiplied by 100.
The nucleic acid sequence of the hydrolytic enzyme present on a plasmid was modified individually or in combination as indicated in Tables 1 and 2 using site directed mutagenesis by means of specific, adapted primers using a Phusion Hot Start Polymerase at the positions S166, A187, F189 or Q191 in the counting according to SEQ ID NO: 1, and the resulting variants were transformed into a suitable host. Active clones were selected by means of a protease-sensitive medium and the DNA sequence was sequenced after isolation of the plasmid for identification purposes. The modified proteases were expressed in the Bacillus host and prepared for the activity determination.
The activity was determined in a liquid preparation that was constituted as follows (all data in wt %): 0.3-0.5% xanthan, 0.2-0.4% defoamer, 6-7% glycerin, 0.3-0.5% ethanol, 4-7% FAEOS (fatty alcohol ether sulfate), 24-28% non-ionic surfactants, 1-2% sodium citrate (dihydrate), 2-4% soda, 14-16% cocoanut fatty acids, 0.5% HEDP (1-hydroxyethane-(1,1-diphosphonic acid)), 0-0.4% PVP (polyvinyl pyrrolidone) 0-0.5% optical brightener, 0-0.001% % colorant, the remainder being demineralized water.
To a 50% conc. liquid preparation of the liquid surfactant preparation were added 0.92 mM AAPF. The reversible inhibitor to be tested was also comprised in the required amount to inhibit the starting enzyme by 20-40%. 20 μl of the respective protease (starting enzyme as well as modified protease variants) were added and the proteolytic activity determined from the release of the chromophore para-nitroaniline (pNA) from the substrate suc-L-Ala-L-Ala-L-Pro-L-Phe-p-nitroanilide (suc-AAPF-pNA). The protease cleaves the substrate and releases pNA. The released pNA causes the extinction at 410 nm to increase; the change in extinction as a function of time is a measure of the enzymatic activity (see Del Mar et al., 1979). The measurement was carried out at a temperature of 25° C., at pH 8.6 and a wavelength of 410 nm.
The measured activity was compared with the activity of a reference formulation of the same protease sample without inhibitor and the respective relative activities of the modified proteases and the starting enzyme were determined. […] The results are presented in the following Tables 1 and 2 (the relative activities are each given).

Row | Molecule | relative activity, 3-HPBA (Table 1) [%] | relative activity, 4-FPBA (Table 1) [%] | relative activity, Boric acid (Table 1) [%] | relative activity, BMA (Table 2) [%] | relative activity, Boric acid (Table 2) [%]
1 | S166A: protease of SEQ ID NO: 3 with amino acid substitution S166A in the count according to SEQ ID NO: 1 (protein, listed as Bacillus lentus) AQSVPWGISRVQAPAAHNRGLTGSGVKVAVLDTGISTHPDLNIRGGASFVPGEPSTQDGNGHGTHVAGTIAALNNSIGVLGVAPSAELYAVKVLGADGEGAISSIAQGLEWAGNNGMHVANLSLGSPSPSATLEQAVNSATSRGVLVVAASGNSGASSIAYPARYANAMAVGATDQNNNRASFSQYGAGLDIVAPGVNVQSTYPGSTYASLNGTSMATPHVAGAAALVKQKNPSWSNVQIRNHLKNTATSLGSTNLYGSGLVNAEAATR | 83 | 61 | 76 | – | –
2 | A187D: protease of SEQ ID NO: 3 with amino acid substitution A187D in the count according to SEQ ID NO: 1 (protein, listed as Bacillus lentus) AQSVPWGISRVQAPAAHNRGLTGSGVKVAVLDTGISTHPDLNIRGGASFVPGEPSTQDGNGHGTHVAGTIAALNNSIGVLGVAPSAELYAVKVLGADGEGAISSIAQGLEWAGNNGMHVANLSLGSPSPSATLEQAVNSATSRGVLVVAASGNSGASSISYPARYANAMAVGATDQNNNRDSFSQYGAGLDIVAPGVNVQSTYPGSTYASLNGTSMATPHVAGAAALVKQKNPSWSNVQIRNHLKNTATSLGSTNLYGSGLVNAEAATR | – | – | – | 79 | 47
3 | S166Y: protease of SEQ ID NO: 3 with amino acid substitution S166Y in the count according to SEQ ID NO: 1 (protein, listed as Bacillus lentus) AQSVPWGISRVQAPAAHNRGLTGSGVKVAVLDTGISTHPDLNIRGGASFVPGEPSTQDGNGHGTHVAGTIAALNNSIGVLGVAPSAELYAVKVLGADGEGAISSIAQGLEWAGNNGMHVANLSLGSPSPSATLEQAVNSATSRGVLVVAASGNSGASSIYYPARYANAMAVGATDQNNNRASFSQYGAGLDIVAPGVNVQSTYPGSTYASLNGTSMATPHVAGAAALVKQKNPSWSNVQIRNHLKNTATSLGSTNLYGSGLVNAEAATR | 58 | 100 | 68 | – | –
4 | F189R: protease of SEQ ID NO: 3 with amino acid substitution F189R in the count according to SEQ ID NO: 1 (protein, listed as Bacillus lentus) AQSVPWGISRVQAPAAHNRGLTGSGVKVAVLDTGISTHPDLNIRGGASFVPGEPSTQDGNGHGTHVAGTIAALNNSIGVLGVAPSAELYAVKVLGADGEGAISSIAQGLEWAGNNGMHVANLSLGSPSPSATLEQAVNSATSRGVLVVAASGNSGASSISYPARYANAMAVGATDQNNNRASRSQYGAGLDIVAPGVNVQSTYPGSTYASLNGTSMATPHVAGAAALVKQKNPSWSNVQIRNHLKNTATSLGSTNLYGSGLVNAEAATR | – | – | – | 80 | 53
5 | A187D/F189R: protease of SEQ ID NO: 3 with amino acid substitutions A187D and F189R in the count according to SEQ ID NO: 1 (protein, listed as Bacillus lentus) AQSVPWGISRVQAPAAHNRGLTGSGVKVAVLDTGISTHPDLNIRGGASFVPGEPSTQDGNGHGTHVAGTIAALNNSIGVLGVAPSAELYAVKVLGADGEGAISSIAQGLEWAGNNGMHVANLSLGSPSPSATLEQAVNSATSRGVLVVAASGNSGASSISYPARYANAMAVGATDQNNNRDSRSQYGAGLDIVAPGVNVQSTYPGSTYASLNGTSMATPHVAGAAALVKQKNPSWSNVQIRNHLKNTATSLGSTNLYGSGLVNAEAATR | – | – | – | 43 | 37
6 | Q191R: protease of SEQ ID NO: 3 with amino acid substitution Q191R in the count according to SEQ ID NO: 1 (protein, listed as Bacillus lentus) AQSVPWGISRVQAPAAHNRGLTGSGVKVAVLDTGISTHPDLNIRGGASFVPGEPSTQDGNGHGTHVAGTIAALNNSIGVLGVAPSAELYAVKVLGADGEGAISSIAQGLEWAGNNGMHVANLSLGSPSPSATLEQAVNSATSRGVLVVAASGNSGASSISYPARYANAMAVGATDQNNNRASFSRYGAGLDIVAPGVNVQSTYPGSTYASLNGTSMATPHVAGAAALVKQKNPSWSNVQIRNHLKNTATSLGSTNLYGSGLVNAEAATR | – | – | – | 63 | 76
7 | S166G: protease of SEQ ID NO: 3 with amino acid substitution S166G in the count according to SEQ ID NO: 1 (protein, listed as Bacillus lentus) AQSVPWGISRVQAPAAHNRGLTGSGVKVAVLDTGISTHPDLNIRGGASFVPGEPSTQDGNGHGTHVAGTIAALNNSIGVLGVAPSAELYAVKVLGADGEGAISSIAQGLEWAGNNGMHVANLSLGSPSPSATLEQAVNSATSRGVLVVAASGNSGASSIGYPARYANAMAVGATDQNNNRASFSQYGAGLDIVAPGVNVQSTYPGSTYASLNGTSMATPHVAGAAALVKQKNPSWSNVQIRNHLKNTATSLGSTNLYGSGLVNAEAATR | – | – | – | 80 | 65
